# Residue numbers refer to the chain shown, from its start. Like-named read-outs stand apart in the source and are kept apart here.
# B1: 1D3/1D3 (antibody, human IgG1, V domains shown)
# VH: EVQLLESGGGLVQPGGSLRLSCAASGFTFNTHAMHWVRQAPGKGLEWVSAISGSGGSTYYADSVKGRFTISRDISKNTLYLQMNSLRAEDTAVYYCARLLGRFGEYGMDVWGQGTTVTVSS
# VL: DIQMTQSPSSLSASVGDRVTITCRASRSIYTWLAWYQQKPGKAPKLLIYDASTLQSGVPSRFSGSGSGTDFTLTISSLQPEDFATYYCQQSYSTPYTFGGGTKVEIK
# B2: 1D3/47B2 (antibody, human IgG1, V domains shown)
# VH: B1 VH
# VL: B1 VL with R27Q, S28T, I29V, S52T, T53N, Q55A, S56T, P95S, Y96W
# notes: 1D3 VH with 47B2 VL
# Key:
# [1] = target: T1, mouse B7-H4 expressed on cells (mouse, UniProt Q7TSP5 25-257); assay: flow cytometry, CHO cells expressing mB7-H4
# T1 construct: also called cellular mB7-H4; mB7-H4/CT26
# T1 sequence: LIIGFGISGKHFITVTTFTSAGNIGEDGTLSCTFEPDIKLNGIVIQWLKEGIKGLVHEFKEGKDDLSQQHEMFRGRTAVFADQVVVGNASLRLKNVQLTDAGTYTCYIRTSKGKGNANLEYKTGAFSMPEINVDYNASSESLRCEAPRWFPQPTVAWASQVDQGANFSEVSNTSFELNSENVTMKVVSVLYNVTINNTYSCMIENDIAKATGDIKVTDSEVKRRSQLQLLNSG
# Description: (§1) ELISA experiments were performed to determine binding to hB7-H4-Fc (FIG. 3A), hB7-H4-his (FIG. 3B), mB7-H4-Fc (FIG. 3C), and hB7-H4 IgV domain (FIG. 3D). Flow cytometry experiments were performed to determine binding to CHO cells expressing hB7-H4 (FIG. 3E) or mB7-H4 (FIG. 3F).
# Cells were harvested, washed once, and then re-suspended to the concentration of 1×10⁶ cells/ml in ice cold FACS Buffer. 25 μl of cell suspension was added to each well of a 96-well round-bottom microliter plate. Serially diluted antibodies or fusion proteins were added to each well and incubated for 1 hour at 4° C. Cells were washed three times by centrifugation at 1500 rpm for 5 minutes, and then stained with secondary antibody (1:200 dilution) for 30 min at 4° C. in the dark. Cells were washed once, re-suspended in 100 μl PBS buffer and then analyzed using Guava Flow Cytometry EasyCyte system.
# [2] = target: T2, human B7-H4-his (human, UniProt Q7Z7D3 25-259); assay: SPR (Biacore)
# T2 construct: also called hB7-H4-his; hB7-H4 his; not shown: his tag
# T2 sequence: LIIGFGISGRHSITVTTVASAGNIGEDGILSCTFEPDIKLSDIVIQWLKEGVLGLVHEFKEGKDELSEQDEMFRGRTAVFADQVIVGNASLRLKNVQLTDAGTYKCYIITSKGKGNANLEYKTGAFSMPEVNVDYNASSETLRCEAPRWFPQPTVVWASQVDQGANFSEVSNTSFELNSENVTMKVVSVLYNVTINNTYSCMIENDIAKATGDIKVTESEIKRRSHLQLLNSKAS
# [3] = target: T3, human B7-H4-Fc (human); assay: SPR (Biacore)
# T3 construct: also called hB7-H4-Fc; hB7-H4 Fc
# [4] = target: T4, mouse B7-H4-his (mouse, UniProt Q7TSP5 25-257); assay: ELISA, coated mB7-H4-his
# T4 construct: also called mB7-H4-his; mB7-H4-His; not shown: his tag
# T4 sequence: T1 sequence
# Description: (§2) About 1-2 μg/ml of human or mouse B7-H4-Fc (or his-tagged) was immobilized on ELISA plates (Immuno 2HB, Thermo scientific, cat #3455) at 4° C. overnight. After blocking the plates with 3% PBS+milk, serial diluted antibodies were added to the blocked plates and incubated at RT for 1-1.5 h. After washing the plates with PBS-T (0.05%), horse radish peroxidase (HRP)-conjugated antibody targeting the hFab was added to the plate. Signals were developed by adding 3,3′,5,5′-Tetramethylbenzidine (TMB (followed 1N of H₂SO₄ to stop the reaction. The OD at 450 nm was read by ELISA plate reader (Infinite M1000 from TECAN). GraphPad from Prism was used to plot OD450 vs. antibody concentration curve and to calculate the EC50 values.
# [5] = target: T5, IgV domain of mouse B7-H4-Fc (mouse; human); assay: ELISA, coated mB7-H4 IgV domain
# T5 construct: also called mB7-H4 IgV domain
# Description: (§3) ELISA experiments were performed to determine binding to hB7-H4-Fc (FIG. 4A), hB7-H4-his (FIG. 4B), hB7-H4 IgV domain (FIG. 4C), and mB7-H4 IgV domain (FIG. 4D). Flow cytrometry experiments were performed to determine binding to CHO cells expressing hB7-H4 (FIG. 4E) or mB7-H4 (FIG. 4F). […] A cross-reactive IgV binding antibody was used as a control.
# as §2
# [6] = target: T6, human B7-H4 expressed on cells (human, UniProt Q7Z7D3 25-282); assay: flow cytometry, SK-BR-3 cells
# T6 construct: Transfected CHO cells or tumor cell lines that carry hB7-H4; also called cellular hB7-H4
# T6 sequence: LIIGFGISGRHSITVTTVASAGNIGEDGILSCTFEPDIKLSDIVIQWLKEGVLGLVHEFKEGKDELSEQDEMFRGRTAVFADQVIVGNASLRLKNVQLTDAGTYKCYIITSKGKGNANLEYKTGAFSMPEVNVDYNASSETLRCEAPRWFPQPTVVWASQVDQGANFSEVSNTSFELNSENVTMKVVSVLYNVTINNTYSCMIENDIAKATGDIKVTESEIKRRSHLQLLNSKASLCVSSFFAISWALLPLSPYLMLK
# Procedure, shortened: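 Cells at 1×10⁶ cells/ml in ice-cold FACS buffer incubated with serially diluted antibodies or fusion proteins for 1 h at 4 °C. After three washes, secondary antibody (1:200) applied 30 min at 4 °C in the dark; binding read by flow cytometry.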
# [7] = target: T7, mB7-H4 (soluble mouse B7-H4, construct not named) (mouse, UniProt Q7TSP5 25-257, limits assumed); assay: summary of ELISA and flow cytometry
# T7 sequence: T1 sequence
# [8] = target: T8, IgC domain of mouse B7-H4-Fc (mouse; human); assay: ELISA, coated mB7-H4 IgC domain (title on the sheet: IgC domain of mB7H4)
# T8 construct: also called mB7-H4 IgC domain
# Description: as §2
# [9] = target: T9, mouse B7-H4-Fc (mouse; human); assay: ELISA, coated mB7-H4-Fc
# T9 construct: also called mB7-H4-Fc; mB7-H4-hFc
# Description: as §1, §2
# [10] = target: T10, IgV domain of human B7-H4-Fc (human); assay: ELISA, coated hB7-H4 IgV domain
# T10 construct: also called hB7-H4 IgV domain
# Description: as §3, §2
# [11] = target: T11, hB7-H4 (soluble human B7-H4, construct not named) (human, UniProt Q7Z7D3 25-259, limits assumed); assay: ELISA, hB7-H4
# T11 construct: also called soluble hB7-H4
# T11 sequence: T2 sequence
# Procedure, shortened: (§4)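 Human or mouse B7-H4-Fc (or his-tagged), about 1-2 μg/ml, was coated overnight at 4° C and blocked with 3% PBS+milk. Serially diluted antibodies bound for 1-1.5 h at RT, detected with HRP-conjugated anti-hFab and TMB, stopped with 1N H₂SO₄. EC50 came from OD450 versus antibody concentration curves.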
# [12] = target: T11, hB7-H4 (soluble human B7-H4, construct …); assay: SPR (Biacore)
# Procedure, shortened: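 Ligands (human B7-H4-Fc, human B7-H4-his, mouse B7-H4-Fc) were amine-coupled to CM5 chips at 50-100 RU. Analyte was injected at 100 nM to 0.1 nM in HBS-EP, pH 7.4, at 25 °C, with 180 s association and 1000 or 1200 s dissociation. Kinetics were fitted to a 1:1 Langmuir model.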
# [13] = target: T3, human B7-H4-Fc; assay: ELISA, coated hB7-H4-Fc
# Description: as §3, §2
# [14] = target: T9, mouse B7-H4-Fc; assay: ELISA, coated mB7-H4-Fc (title on the sheet: Binding to mB7-H7-Fc)
# Description: as §2
# [15] = target: T1, mouse B7-H4 expressed on cells; assay: flow cytometry, CHO cells expressing mB7-H4; remark: listed apart in the source
# [16] = target: T5, IgV domain of mouse B7-H4-Fc; assay: ELISA, coated mB7-H4 IgV domain; remark: listed apart in the source
# Procedure, shortened: as §4
# [17] = target: T7, mB7-H4 (soluble mouse B7-H4, construct …); assay: ELISA and SPR (Biacore)
# Description: as §2
# Surface plasmon resonance experiments were performed using a Biacore T200 instrument equipped with CM5 sensor chips. The system was equilibrated in running buffer HBS-EP pH 7.4. The ligands were immobilized using amine-coupling chemistry. The surfaces of flow cells one through four were activated for 5 min using an amine coupling kit at a flow rate of […]. The ligands (human B7-H4-Fc, human B7-H4-hism and mouse B7-H4-Fc; at a concentration of 5 μg/ml in 10 mM sodium acetate, pH 5.0) were immobilized at a density of 50-100 RU on flow cell 2, 3, 4 respectively. Flow cell 1 was left blank to serve as a reference surface. All flow cell surfaces were blocked with a 5 min injection of 1 M ethanolamine, pH 8.0. To collect kinetic binding data, the respective analyte (diluted in 1×HBS-EP buffer, pH 7.4) was injected over the four flow cells at concentrations of 100 nM to 0.1 nM at a flow rate of […] and at a temperature of 25° C. The protein complex was allowed to associate and dissociate for 180 seconds and 1000 or 1200 seconds, respectively. The surfaces were regenerated with a 30 second injection of 1.5 M NaCl/0.05 M NaOH. The data were fit to a simple 1:1 interaction model using the Langmuir fit option available within the Biaevaluaton software
# [18] = target: T12, IgC domain of human B7-H4-Fc (human); assay: ELISA, coated hB7-H4 IgC domain (title on the sheet: IgC domain of hB7H4)
# T12 construct: also called hB7-H4 IgC domain
# Description: as §2
# T5 sequence (chain, as listed by the source): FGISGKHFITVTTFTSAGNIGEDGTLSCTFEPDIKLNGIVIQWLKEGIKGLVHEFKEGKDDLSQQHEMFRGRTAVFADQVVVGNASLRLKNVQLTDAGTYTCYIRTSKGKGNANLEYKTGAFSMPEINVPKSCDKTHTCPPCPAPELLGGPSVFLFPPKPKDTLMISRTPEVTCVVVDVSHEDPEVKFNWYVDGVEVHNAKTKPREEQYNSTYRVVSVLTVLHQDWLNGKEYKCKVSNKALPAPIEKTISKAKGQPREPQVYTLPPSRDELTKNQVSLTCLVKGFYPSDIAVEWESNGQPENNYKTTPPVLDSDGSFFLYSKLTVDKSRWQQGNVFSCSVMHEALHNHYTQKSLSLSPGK
# T8 sequence (chain, as listed by the source): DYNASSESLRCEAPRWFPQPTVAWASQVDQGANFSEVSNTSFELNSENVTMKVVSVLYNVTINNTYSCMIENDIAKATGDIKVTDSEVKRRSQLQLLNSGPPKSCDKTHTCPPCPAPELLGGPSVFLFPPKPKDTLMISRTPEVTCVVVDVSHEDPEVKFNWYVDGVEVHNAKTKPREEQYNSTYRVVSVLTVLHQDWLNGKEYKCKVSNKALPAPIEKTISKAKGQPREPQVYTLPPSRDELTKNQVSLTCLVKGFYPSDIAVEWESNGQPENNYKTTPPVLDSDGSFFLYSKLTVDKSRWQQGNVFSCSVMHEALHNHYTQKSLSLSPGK
# T3 sequence (chain, as listed by the source): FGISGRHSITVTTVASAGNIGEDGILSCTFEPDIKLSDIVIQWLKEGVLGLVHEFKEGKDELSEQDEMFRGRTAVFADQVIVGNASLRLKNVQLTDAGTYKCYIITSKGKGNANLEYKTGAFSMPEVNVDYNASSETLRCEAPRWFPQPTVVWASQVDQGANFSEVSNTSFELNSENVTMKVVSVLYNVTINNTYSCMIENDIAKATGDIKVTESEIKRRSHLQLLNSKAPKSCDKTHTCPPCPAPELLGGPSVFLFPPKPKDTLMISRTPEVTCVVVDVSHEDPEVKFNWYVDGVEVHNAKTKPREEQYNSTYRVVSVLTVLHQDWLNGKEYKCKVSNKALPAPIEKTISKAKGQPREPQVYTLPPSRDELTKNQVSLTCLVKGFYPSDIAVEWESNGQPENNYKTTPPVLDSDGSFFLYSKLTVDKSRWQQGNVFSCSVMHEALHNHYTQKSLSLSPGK
# T9 sequence (chain, as listed by the source): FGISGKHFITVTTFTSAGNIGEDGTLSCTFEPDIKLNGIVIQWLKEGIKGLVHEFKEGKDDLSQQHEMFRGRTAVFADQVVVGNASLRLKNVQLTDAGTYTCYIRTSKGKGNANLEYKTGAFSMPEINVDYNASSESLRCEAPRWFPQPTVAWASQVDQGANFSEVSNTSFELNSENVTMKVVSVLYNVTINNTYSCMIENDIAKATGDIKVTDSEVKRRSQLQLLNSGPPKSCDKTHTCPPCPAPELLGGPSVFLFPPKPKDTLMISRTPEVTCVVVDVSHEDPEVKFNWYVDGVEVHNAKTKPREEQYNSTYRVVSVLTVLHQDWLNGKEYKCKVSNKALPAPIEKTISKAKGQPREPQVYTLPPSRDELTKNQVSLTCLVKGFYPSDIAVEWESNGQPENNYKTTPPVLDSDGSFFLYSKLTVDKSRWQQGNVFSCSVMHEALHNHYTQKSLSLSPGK
# T10 sequence (chain, as listed by the source): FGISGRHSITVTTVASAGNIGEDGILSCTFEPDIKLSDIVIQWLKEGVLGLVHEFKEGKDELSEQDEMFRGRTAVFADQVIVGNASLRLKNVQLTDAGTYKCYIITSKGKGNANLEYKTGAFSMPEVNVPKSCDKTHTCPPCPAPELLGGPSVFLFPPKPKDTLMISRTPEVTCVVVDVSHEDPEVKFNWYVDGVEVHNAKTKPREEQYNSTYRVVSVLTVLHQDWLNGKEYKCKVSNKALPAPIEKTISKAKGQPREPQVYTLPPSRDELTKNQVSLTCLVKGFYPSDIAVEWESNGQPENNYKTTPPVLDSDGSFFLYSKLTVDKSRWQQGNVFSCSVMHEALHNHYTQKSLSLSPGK
# T12 sequence (chain, as listed by the source): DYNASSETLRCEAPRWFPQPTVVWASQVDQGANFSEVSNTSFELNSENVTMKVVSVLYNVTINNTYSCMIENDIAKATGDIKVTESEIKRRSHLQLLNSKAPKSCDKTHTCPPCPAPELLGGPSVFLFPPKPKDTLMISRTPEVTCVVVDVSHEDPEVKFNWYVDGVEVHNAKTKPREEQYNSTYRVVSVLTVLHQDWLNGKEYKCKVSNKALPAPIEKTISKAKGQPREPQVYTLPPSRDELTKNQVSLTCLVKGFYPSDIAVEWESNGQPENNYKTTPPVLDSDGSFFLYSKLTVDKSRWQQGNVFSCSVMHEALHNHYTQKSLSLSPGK
Binder,binding result [1],Kd [2],Kd [3],binding result [4],binding result [5],EC50 [6],binding result [7],binding result [8],binding result [9],EC50 (read off the curve) [10],EC50 [11],Kd [12],EC50 (read off the curve) [13],binding result [14],binding result [15],binding result [16],binding result [17],binding result [18]
B1,no binding (tested: axis value -7 (log scale labelled nM)),0.551 nM,0.805 nM,no binding (tested: axis value -8 (labelled log nM)),no binding,18.6 nM,no binding,no binding (tested: axis value -8 (labelled log nM)),no binding (tested: axis value -8 (log scale labelled nM)),~10 ng/mL,0.044 nM,0.775 nM,~7 ng/mL,–,–,–,–,–
B2,–,–,–,no binding (tested: axis value -8 (labelled log nM)),–,36 nM,–,no binding (tested: axis value -8 (labelled log nM)),–,–,0.078 nM,0.209 nM,–,no binding (tested: axis value -8 (log scale labelled nM)),no binding (tested: log 2 nM (100 nM)),no binding (tested: axis value -8 (labelled log nM)),no binding,no binding (tested: axis value -8 (labelled log nM))
